Data as given in the nanobody polyreactivity screen of Harvey et al. (2022).

Test: yeast display, Sf9 membrane polyspecificity reagent, FACS + sequencing; frameworks hold sequencing errors
Outline: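 Genes from sorted yeast were amplified by colony PCR, read by MiSeq 2 × 250 sequencing and filtered on CDR length. These cells carried a synthetic nanobody library in Saccharomyces cerevisiae BJ5465 and were sorted by FACS into low and high (top ~1%) gates on anti-HA and streptavidin fluorescence. Polyreactivity is labelled according to the gate of origin.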
For “QVQLVESGGGLVQAGGSLRLSCAASGNIFYINAMGWYRQAPGKERELVAAISSGGRTNYADSVKGRFTISRDNAKNTVYLQMNSLKPEDTAVYYCNADGWYAWRYYAPGGYDYWGQGTQVTVSS”, the “polyreactivity (PSR sort gate)” value was “low polyreactivity”. In the case of “QVQLVESGGGLVQAGGSLRLSCAASGNIFYKYAMGWYRQAPGKERELVAAITWRVVRTYYADSVKGRFTISRDNAKNTVYLQMNSLKPEDTAVYYCAALSRQSGDYWGQGTQVTVSS”, the “polyreactivity (PSR sort gate)” value is reported as “high polyreactivity”. With “QVQLVESGGGLVQAGGSLRLSCAASGNIFYLNTMGWYRQAPGKERELVASISRDGGRTYYADSVKGRFTISRDNAKNTVYLQMNSLKPEDTAVYYCAAVVLHHFTEVGQHYYWGQGTQVTVSS” the “polyreactivity (PSR sort gate)” value was “low polyreactivity”. For “QVQLVESGGGLVQAGGSLRLSCAASGNIFYLYAMGWYRQAPGKERELVARITIGGSTYYADSVKGRFTISRDNAKNTVYLQMNSLKPEDTAVYYCAARGPYYRYYYWGQGTQVTVSS”, the “polyreactivity (PSR sort gate)” value was “high polyreactivity”. With “QVQLVESGGGLVQAGGSLRLSCAASGNIFYNGMGWYRQAPGKERELVAAIRGSGGRTYADSVKGRFTISRDNAKNTVYLQMNSLKPEDTAVYYCATRRWYAYGVYYWGQGTQVTVSS” the “polyreactivity (PSR sort gate)” value was “high polyreactivity”. With “QVQLVESGGGLVQAGGSLRLSCAASGNIFYQYAMGWYRQAPGKEREFVAAISISGTSTYADSVKGRFTISRDNAKNTVDLQLNSLKPEDTEVYWGQGTQVTVSS” the “polyreactivity (PSR sort gate)” value was “low polyreactivity”. For “QVQLVESGGGLVQAGGSLRLSCAASGNIFYRYAMGWYRQAPGKERELVAAIRSGSSTNYADSVKGRFTISRDNAKNTVYLQMNSLKPEDTAVYYCAARSKYTHSRQSDYWGQGTQVTVSS”, the “polyreactivity (PSR sort gate)” value was “low polyreactivity”. In the case of “QVQLVESGGGLVQAGGSLRLSCAASGNIFYSYAMGWYRQAPGKARELVATIRSGGSTYYADSVKGRFTISRDKAKNTVYLQMNSLKPEDTAVYYCAAPYPYRYFEYYWGQGTQVNVSS”, the “polyreactivity (PSR sort gate)” value is reported as “low polyreactivity”. With “QVQLVESGGGLVQAGGSLRLSCAASGNIFYSYAMGWYRQAPGKERELVAAISSSGGGTYYADSVKGRFTISRDNAKNTVYLEMNSLKPEDTAVYYCATTARPTRYSSVRYYYWGQGTQVSVSS” the “polyreactivity (PSR sort gate)” value was “high polyreactivity”. In the case of “QVQLVESGGGLVQAGGSLRLSCAASGNIFYSYAMGWYRQAPGNERELVAAISWGGGRTYYADSVKGRFTISRDNAKNTVYLQMNSLKPEDTAVYYCNKVTRGGYDYWGQGTQVTVSS”, the “polyreactivity (PSR sort gate)” value is reported as “high polyreactivity”. With “QVQLVESGGGLVQAGGSLRLSCAASGNIFYVYAMGWYRQAPGKEREFVAAIRGSGGSTYYADSVKGRFTISRDNAKNTVYLQMNSLIQEDTAVYYCDAVAWEGSGSEMYSWGQGTQVTVSS” the “polyreactivity (PSR sort gate)” value was “low polyreactivity”. With “QVQLVESGGGLVQAGGSLRLSCAASGNIFYVYAMGWYRQAPGKERELVAVISRNDGSTYYADSVKARFTISRDNAKNTVYLQMNSLKPEDTAVYYCNAEWYFWGQGTQVTVSS” the “polyreactivity (PSR sort gate)” value was “low polyreactivity”. With “QVQLVESGGGLVQAGGSLRLSCAASGNIFYYNAMGWSRQGPGKEMELVAAISSGGSTNYADSVKGRFTISRDNAKNTVYLQMNSLKPEDTAVYYCAANYVTIGSGYYGYDYWGQGTQVTVSS” the “polyreactivity (PSR sort gate)” value was “low polyreactivity”. In the case of “QVQLVESGGGLVQAGGSLRLSCAASGNIICGNAMGWYRQAPGKERELVAAISRRSGSTYYADSVKGRFTISRDNAKNTVYLQMNSLKPEDTAVYYCNTAGRVGTYDYWGQGTQVTVSS”, the “polyreactivity (PSR sort gate)” value is reported as “high polyreactivity”. With “QVQLVESGGGLVQAGGSLRLSCAASGNIIDANAMGWYRQAPGKERELVAAITSSGGSTYYADSVKGRFTISRDNAKNTVYLQMNSLKPEDTAVYYCAKSHAIYYWWDESWGQGTQVTVSS” the “polyreactivity (PSR sort gate)” value was “low polyreactivity”. In the case of “QVQLVESGGGLVQAGGSLRLSCAASGNIIWGNAIGWYRQAPGKERELVAAISRRSGSTYYADSVKGRFTISRDIAKNTVYLQMNSLKPEDTAVYYCNTAGRVGTYDYWGQGTQVTVSS”, the “polyreactivity (PSR sort gate)” value is reported as “high polyreactivity”. In the case of “QVQLVESGGGLVQAGGSLRLSCAASGNILGYYAMGWYRQAPGKERELVADINWDGGSTYYADSVKGRFTISRDNAKNTVYLQMNSLKPEDTAVYYCNAEVGITWWFREVDYWGQGTQVTVSS”, the “polyreactivity (PSR sort gate)” value is reported as “high polyreactivity”. In the case of “QVQLVESGGGLVQAGGSLRLSCAASGNILPVYAMGWYRQAPGKEREFVAAITSRGGSTYYADSVKGRFTISRDNAKITVYLQMNSLKPDDTAVYYCAAKYLRAYGYWGQGTQVTVSS”, the “polyreactivity (PSR sort gate)” value is reported as “high polyreactivity”. With “QVQLVESGGGLVQAGGSLRLSCAASGNILTTYAMGWYRQAPGKERELVAAIRWSDGSTYYADSVKGRFTISRDNAKNTVYLQMYSLKPEDNAVYYCAADYHYPTWQGGYHYGYWGQGTQVTVSS” the “polyreactivity (PSR sort gate)” value was “high polyreactivity”. In the case of “QVQLVESGGGLVQAGGSLRLSCAASGNILVSYTMGWSRQAPGKDTELVAAINSGGNTNYADSVKGRFTISRDNAKNTVYLQMNSLKPEDTAVYYCNAYTDSLWVYPFWIYRDYDDWGHGTQVTVSS”, the “polyreactivity (PSR sort gate)” value is reported as “low polyreactivity”. For “QVQLVESGGGLVQAGGSLRLSCAASGNISPDYGMGWYRQAPGKERELVAVIRWSDDSTYYADSVKGRFTISRDYAKNSVYLQMNSLKPEDTAVYYCSTDDYDAIDLDYWGQGTQVTVSS”, the “polyreactivity (PSR sort gate)” value was “low polyreactivity”. For “QVQLVESGGGLVQAGGSLRLSCAASGNIYDPYAMGWYRQAPGKERELVARISSGGRTDYADSVKGRFTISRDNAKNTVYLQMNSLKPEDTAVYYCAADVLQAYYLTLFGYRYYLVDYWGQGTQVTVSS”, the “polyreactivity (PSR sort gate)” value was “low polyreactivity”. With “QVQLVESGGGLVQAGGSLRLSCAASGNIYNNYDMGWYRPAPGKERDLVARIDSGGSTNYADSVKGRFTISRDNAKNTVYLQMNCLKPEDTAVYYCAADFLSHWLLEMDYWGQGTQVTVSS” the “polyreactivity (PSR sort gate)” value was “low polyreactivity”. With “QVQLVESGGGLVQAGGSLRLSCAASGNNFRSYAMGWYRQATGKERELVAAISGRGGSTYYADSVKGRFTISRDNAKNTVYLQMNSLKPEDTAVYYCAAESRRVNYANDYWGQGTQVTVSS” the “polyreactivity (PSR sort gate)” value was “high polyreactivity”. With “QVQLVESGGGLVQAGGSLRLSCAASGNNLCRNAMGWYRQAPGKERELVATISSVGTYYADSVKGRFTISRDNAKNNVYVQMNSLKPEDTAVYSCNARGRRSGYISGYDYWGQGTQVTVSS” the “polyreactivity (PSR sort gate)” value was “high polyreactivity”. In the case of “QVQLVESGGGLVQAGGSLRLSCAASGNTFDIYAMGWYIQAPGKERELVAAISRRGGSTYYAESVKGRFTISRDNAKNTVYLQLNSLKPEDTAVYYCNTVYATRYDYWGQGTQVTVSS”, the “polyreactivity (PSR sort gate)” value is reported as “high polyreactivity”. In the case of “QVQLVESGGGLVQAGGSLRLSCAASGNTFDYYAMGWYRQAPGKERELVAAITRGGSTNYADSVKGRFTISRDNAKNTVYLQMNSLKPEDTAGYYCAAEQRAPRFADYDYWGQGTQVTVSS”, the “polyreactivity (PSR sort gate)” value is reported as “low polyreactivity”. For “QVQLVESGGGLVQAGGSLRLSCAASGNTFDYYDMGWYSQAPGKERELVAAGSGGSTYYADSVKGRFTISRDNAKHTVYLQMNSLKPEDTAVYYCAARDRYYFGGMYYWGQGTQVTVSS”, the “polyreactivity (PSR sort gate)” value was “low polyreactivity”. For “QVQLVESGGGLVQAGGSLRLSCAASGNTFEFYAMGWYRQAPGKERELVAAISASGGRTYYADSVKGRFTISRDNAKNTVYLQMNSLKPEDTAVYYCAAVRKSTRFDYWGQGTQVTVSS”, the “polyreactivity (PSR sort gate)” value was “high polyreactivity”. With “QVQLVESGGGLVQAGGSLRLSCAASGNTFEYNAMGWYRQAPGKEREFVAAIDFSDGSTYYADSVKGRFTISRDNAKNTVYLQMNSLKPEDTAVYYCAGDYYSYFGNYYYWGQGTQVTVSS” the “polyreactivity (PSR sort gate)” value was “high polyreactivity”. With “QVQLVESGGGLVQAGGSLRLSCAASGNTFFTYAMGWYRQAPGQERELVAVITSVGSTNYADSVKGLFTISRDNAKNTVYLQMNSLKPEDTAVYYCAAKGYRVYRYYRGRTYDYWGQGSQVTVSS” the “polyreactivity (PSR sort gate)” value was “high polyreactivity”. For “QVQLVESGGGLVQAGGSLRLSCAASGNTFGAYTMGWYRQAPGKEREFVAAISYSGGITFYADSVKGRFTISRDNAKNTVYLQMNSLKPEDTAVYYCAARTYRYGYWYDYWGQGTQVTVSS”, the “polyreactivity (PSR sort gate)” value was “high polyreactivity”. For “QVQLVESGGGLVQAGGSLRLSCAASGNTFGPYAMGWYRQAPGKERELVAAITWTDTSTHYADSVKGRFTISRDNAKNTVYLQMNSLKPEDTAVYYCARVYYVNTYRYRAGYYYWGQRTQVTVSS”, the “polyreactivity (PSR sort gate)” value was “high polyreactivity”. In the case of “QVQLVESGGGLVQAGGSLRLSCAASGNTFGYNAMGWYRQAPGKERELVASITWSGGSTYYADSVKGRFTISRDNAKNTVYLQMNSLKPEDTAVYYCNADVRFDYWGQGTQVTVSS”, the “polyreactivity (PSR sort gate)” value is reported as “low polyreactivity”. For “QVQLVESGGGLVQAGGSLRLSCAASGNTFGYYAMGWYRQAPGKERELVAAITSSGGRTYYADSVKGRFTISRDNAKNTVYLQMNSLKPEDTAVYYCAAGRVGARYPTYRFYYWGQGTQVTVSS”, the “polyreactivity (PSR sort gate)” value was “high polyreactivity”. With “QVQLVESGGGLVQAGGSLRLSCAASGNTFHTYTMGWYRQAPGKERELVAVITRSGGRTYYADSVKGRFTISRDNAKNTVYLQMNSLKPEDTAVYYCAVLGAGQTWLDYWGQGTQVTVSS” the “polyreactivity (PSR sort gate)” value was “high polyreactivity”. With “QVQLVESGGGLVQAGGSLRLSCAASGNTFKVYVMGWYRQAPGKERELVAAISRRGGNTYYADSVKGRFTISRDNAKNTVYLQMNSLKPEDTAVYYCAAYRAPYYEYDYWGQGTQVTVSS” the “polyreactivity (PSR sort gate)” value was “high polyreactivity”. In the case of “QVQLVESGGGLVQAGGSLRLSCAASGNTFKYYAMGWYRQAPGKERELVAAISYSGGSTYYADSVKGRFTISRDNAKNTVYLLMNSLKPEVTAVYYCAADLDSERYYWGQGTQVTVSS”, the “polyreactivity (PSR sort gate)” value is reported as “low polyreactivity”. For “QVQLVESGGGLVQAGGSLRLSCAASGNTFLVNAKGWYRQAPGKERELVATIRRGGSTNYADSVKGRFTISRDNAKNTVYLLMNSLKPEDTAVYYCNADRVGYWSSNMDYWGQGTEVTVSS”, the “polyreactivity (PSR sort gate)” value was “low polyreactivity”. With “QVQLVESGGGLVQAGGSLRLSCAASGNTFPAYAMGWYRQAPGKERELVATISWSTGSTNYADSVKGRFTISRDIAKNTVYLQMNSLKPEDTAVYYCNKELYDFKDRNLKAFLLRIFDSWGQGTQVTVSS” the “polyreactivity (PSR sort gate)” value was “low polyreactivity”. With “QVQLVESGGGLVQAGGSLRLSCAASGNTFPFNAMGWYRQAPGKERELVAAISRGGSTYYADSVKGRFTISRDNAKNTVYLQMNSLKPEDTAVYYCAVSAGKRRLDYWGQGTQVTVSS” the “polyreactivity (PSR sort gate)” value was “high polyreactivity”. For “QVQLVESGGGLVQAGGSLRLSCAASGNTFPTYAMGWYRQAHGKERELVAAINKRGSNTYYADSVKGRFTISRDNAKNTVYLQMNSLKPEDTADYYARAAGEYDYWGQGTQVTVSS”, the “polyreactivity (PSR sort gate)” value was “high polyreactivity”. With “QVQLVESGGGLVQAGGSLRLSCAASGNTFPWYAMGWSRQAPGKERELVAAINSGGRTNYADSVKGRFTISRDNAKNTVYLQMNSLKQEDTAVYYCAAAFDWGLYCFDYWGQGTQVTVSS” the “polyreactivity (PSR sort gate)” value was “high polyreactivity”.
